In the DeepSol protein solubility set:

Assay: soluble on expression in E. coli; label from the status in PepcDB or PDB records

Sequence	soluble on expression in E. coli
MSLENKFARTVLGDIPVEKLGITDCHDHFIKNGGPEVEEHIDFLMLNVDASIKEFKEFIDRGGSTIVTMDPPNVGRDVLKTLEIANAVKNLGGNVIMSTGFHKAKFYDKYSSWLAVVPTEEIVKMCVAEIEEGMDEYNYNGPVVKRSKAKAGIIKAGTGYGAIDRLELKALEVAARTSILTGCPILVHTQLGTMALEVAKHLIGFGANPDKIQISHLNKNPDKYYYEKVIKETGVTLCFDGPDRVKYYPDSLLAENIKYLVDKGLQKHITLSLDAGRILYQRNYGLTKGKQTFGLAYLFDRFLPLLKQVGVSKEAIFDILVNNPKRVLAFDEKRNFDPLKVSKEVLELKKELNLNEGHHHHHH	soluble
MSLENLNIENWPVDRLHHSEHATRRNEDAIPRMVDALRMFGFRIPLLVTGAGEVVDGHLRLKAALVMGMASVPVIVVDDMTPTQVRTFRLLINRSATWAEWDDEALRVELASLRDYGVDVTMTGFADAELDAFLQGVSLAGESDPDMVPPLPETPTSRPGDVWNMGGHRLLCGDSTSVEDVVRLMAGEQADMLWTDPPYNVDYSGKAGKIRNDKMSPEDFDAFLLRLLSRSYEALADGAAAYVAHSEAGGGTAFRKAFAHAGYKLASCLIWRKHQLVLGRGDYHWQHEPILYGWKPTGKHRWYGNRKHTTLLEHFAGQTVLPAGEGVWQVATGDAVLLIRGQDVTVEEVSTSILAVAKPARSELHPTMKPVALVERMVANSSPRGGLVLDPCGGSGTTLIACERMGRRCNTMELDPRFADVIVRRWEEVTGKTAVLEGGASFADVPLAREVAHEGHHHHHH	soluble
MSLENSQELTPWQRLTIARMLERPTSLEYIDLIFDSFMEFHGDRAFGDDAAIVGGVAEFNGMPVTVIGQQKGRNTNENIKRNFGMPSPEGYRKALRLMKQAEKFNRPLICFVDTSGAYCGVEAEQRGQGEAIAKNLISMANLKIPVISVVIGEGGSGGALAMAVADEVWMLENSVYSLLSPEGFASILWKDSSRAKEAAEVMKITADDLKGYGIIDKVIKEPDGGAQNDITMVANALRENLKKAIEGLSSTGINELLDNRYNKFRQIGKFIENEDNEGHHHHHH	soluble
MSLEPATAPRPDMAPELTPEEEQATKQFLEEINKWTVQYNVSPLSWNVAVKFLMARKFDVLRAVELFHCYRETRRKEGIVKLKPHEEPLRSEILSGKFTILNVRDPTGASIALFTARLHHPHKSAQHVVLQALFYLLDRAVDSFETQRNGLVFIYDMCGSNYANFELDLGKKVLNLLKGAFPARLKKVLIVGAPIWFRVPYSIISLLLKDKVRERIQILKTSEVTQHLPRECLPENLGGYVKIDLATWNFQFLPQVNGHPDPFDEIILSSLPPAEGHHHHHH	soluble
MSLEQYFKRFLGEENAYFDEIHKRAYSYDATKKHYLPDGVLFPRNEEDIARILKFCNENNIIVIPRGSGSGFTGGALAVNGGVVLAFEKHMNKILEIDLENLVAVVQPGVINIHLQKEVAKYGLFYPPDPASMEYSSLGGNVSENAGGMRAAKYGITKDYVMALRAVLPSGEIIRAGKRTIKDVAGYNLAGILIASEGSLAVLSELTLKLIPLPKFKKTAFAIFPSVKSAMNAVYKSLASGVSPVSMEFLDNLSIRAVESKFNKGLPIEAGAILIADVDGNVKEAIDEDLRNLEHYFLEAGASEFKIAKDEQETADIWFARRNCSQSIAMYGTLKLNEDITVPRSKLPTLLEGIDEISKKYGFKIPCFGHTGDGNVHTNVMVPDKNDKEQVKKGYEAVEEIFKLTVKLGGTLSGEHGIGLSKAPFMNLAFSEAEMNLMRNIKKAFDPNNILNPFKMGLEGHHHHHH	soluble
MSLERKLEIVKTKTENYTIKVDGVFIHSKYDPLREAETFAIKNIELIKNSRYIVIYGFGLGYHIEAVLRHMNEESMLAVFDADLEVIKEAKKQSLYKKLIKNPRLKCFFDYGDEFLKEFSKSLSLAKNIIIYRPSLKVLPEEFGHMARLLKGYELAKIEIEKHGKLAEYNYDMNLKKTHKKMQDFLSFYSFGCENIVLVSSGPSLDYNIESLKKVRDRVKIFCAGSAAEFLIKNHIIPDMICIIDPQDIVYTQLQSILNKNIPLCFLSSACSRVVSEWSGEKFLFFNDFNAARENNDVVVETGKSVATAILSIAVLKKPKKVIFIGQDLAYLNGKSHHDNYGSSQSSGIKKVRSVDGEYLETNEGFLYFKSWIEQKIMKSKDIEFINCSSGAEIKGTIASKLIDAIKEGHHHHHH	soluble
MSLESENIISAADKARILAEALPYIRRFSGSVAVIKYGGNAMTEPALKEGFARDVVLLKLVGIHPVIVHGGGPQINAMLEKVGKKGEFVQGMRVTDKEAMDIVEMVLGGHVNKEIVSMINTYGGHAVGVSGRDDHFIKAKKLLIDTPEQNGVDIGQVGTVESIDTGLVKGLIERGCIPVVAPVGVGEKGEAFNINADLVAGKLAEELNAEKLLMMTNIAGVMDKTGNLLTKLTPKRIDELIADGTLYGGMLPKIASAVEAAVNGVKATHIIDGRLPNALLLEIFTDAGIGSMILGGGEDAEGHHHHHH	soluble
MSLESSDVPRELIESIKDVIGRKIKISVKKKVKLEVKGDKVENKVLVLTSCRAFLVTARIPTKLELTFSYLEIHGVVCSKSAQMIVETEKCSISMKMASPEDVSEVLAHIGTCLRKIFPGLSPVRIMKKVSMEPSERLASLQALWDSQTVAEQGPCGGFSQMYACVCDWLGFSYREEVQWDVDTIYLTQDTRELNLQDFSHLDHRDLIPIIAALEYNQWFTKLSSKDLKLSTDVCEQILRVVSRSNRLEELVLENAGLRTDFAQKLASALAHNPNSGLHTINLAGNPLEDRGVSSLSIQFAKLPKGLKHLNLSKTSLSPKGVNSLSQSLSANPLTASTLVHLDLSGNVLRGDDLSHMYNFLAQPNAIVHLDLSNTECSLDMVCGALLRGCLQYLAVLNLSRTVFSHRKGKEVPPSFKQFFSSSLALMHINLSGTKLSPEPLKALLLGLACNHNLKGVSLDLSNCELRSGGAQVLEGCIAEIHNITSLDISDNGLESDLSTLIVWLSKNRSIQHLALGKNFNNMKSKNLTPVLDNLVQMIQDEESPLQSLSLADSKLKTEVTIIINALGSNTSLTKVDISGNGMGDMGAKMLAKALQINTKLRTVIWDKNNITAQGFQDIAVAMEKNYTLRFMPIPMYDASQALKTNPEKTEDALQKIENYLLRNHETRKEGHHHHHH	soluble
MSLESYVPNNEAKFPENISYGSMGGPTFSTVISELGGGKEQRKVNWTHSRNRYNVAYNTASSDQCSALISFFYAHRGKALPFRFKDWSDYTATGQNIGVGDGKSLNFQLVKRYHAGQYSYVRKISRPVVGTVKMSLGEVSQEYERDYSVDYNSGVVTFAVPPAHNATIHADFEFDVLVRFDTDFLAFAMEAHGNYGCHGVSLVEVSEEGHHHHHH	soluble
MSLETKVAARDLSSLLSHCEAPVAALTVTAFKCKASACSVAPAPGSNTGLGALMSMAQAAQGLQTFPNIGDGLSNALTTALKTTGCFKVMAREDFEDLRREAEAAGITLKSASADYLVTGAITSLAVGAKTQSFGGGFVPLVGAVSRSTKSANISIDVRLVDVKASEVKASQTFDVSNERSSWGAGGAGWGGSGALFGAASSTQSPELDSVANESVIQAANYIVTQVAGSAAIPPVAAITKEGHHHHHH	not soluble
MSLETTHSFGDRAVFAFGKHTGKIFKYAPRVLKDQDPEDLHQLRVGVRRLRTAVIGFMPAVQLPQGITERKIGKIGQQLGVQRDNDVLQEILLHKYLPHLPTSEQGCLEKVLKRLQKERKQAFKATYKLLTHDKFTQFKQSWEIWLEHPHFTSLGGLAIADVLPDLLLPQLSQFFLHPGWLVGTEIDPDTNSSNRQRRCIDLSPTAIETLLDGEESILHDLRKEAKRTRYQMELFSDYFGEEYQQLLAQVKMTQEILGNLQDSFVLRAMVEQYLDVDLKQLCPQWSAIFHGDRLGYWDQWQPLQSQFIDPVYRHHCRQLVQNPLVNSDQPTSSNLEGHHHHHH	soluble
MSLETVLVPVDFTIEKEDLLGCIGEFKNAGLKKVILLHVVDIHKSQGLAPMFERNAKKRIEDYTGFAEELGLETEALVVVGDIKRTISETADRKNVDAIIMGATAKGFIKGRFLGRTTEHIARSSKKILLVEKYDALKEGKEFYKNACRATFSRVLVPLDFSKESMKAIEQLQEFGGIVKEVLLLHVIDNIKDMDLLDEQREEAKGKLGRIKEQLTGIKSQYLVVEGIPSDEIVKFANIEEATMIMLTSRGKGDLIDLILGSTAESVLRKTIKPVLIIPASKEFDGEEGHHHHHH	soluble
